Measured values published in paper PMC2770089.

Target: Tat translocon (TatABC) in inverted membrane vesicles (E. coli) (UniProt P69428)
Test: co-sedimentation

Tat translocon (TatABC) in inverted membrane vesicles (E. coli), sequence (P69428 whole entry, chain 1 of 3): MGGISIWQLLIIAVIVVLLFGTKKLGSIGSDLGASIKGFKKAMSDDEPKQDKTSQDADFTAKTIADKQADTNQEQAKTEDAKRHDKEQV
Tat translocon (TatABC) in inverted membrane vesicles (E. coli), sequence (P69425 whole entry, chain 2 of 3, further chain): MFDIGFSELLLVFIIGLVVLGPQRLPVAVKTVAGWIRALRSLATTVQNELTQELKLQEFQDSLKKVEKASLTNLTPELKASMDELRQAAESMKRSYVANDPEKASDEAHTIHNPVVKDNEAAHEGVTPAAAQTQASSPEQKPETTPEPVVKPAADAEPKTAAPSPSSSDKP
Tat translocon (TatABC) in inverted membrane vesicles (E. coli), sequence (P69423 whole entry, chain 3 of 3, further chain): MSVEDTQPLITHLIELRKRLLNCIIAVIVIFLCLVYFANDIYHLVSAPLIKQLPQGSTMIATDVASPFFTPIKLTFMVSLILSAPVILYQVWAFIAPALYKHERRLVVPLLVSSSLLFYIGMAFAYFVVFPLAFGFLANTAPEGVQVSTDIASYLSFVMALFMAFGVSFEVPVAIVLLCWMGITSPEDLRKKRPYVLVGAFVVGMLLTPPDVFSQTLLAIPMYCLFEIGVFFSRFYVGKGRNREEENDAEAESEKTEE

Row | percent decrease of precursor bound to the Tat machinery from 0.05 to 1 M KCl [%] | percent inhibition of translocon binding by 1 M urea [%] | amount bound to the Tat machinery (8.3 pmol added) [pmol] | amount of precursor added at which translocon binding saturates [pmol] | Substance
1 | 35 | 75 |  |  | pre-SufI (from UniProt P26648 28-470) (natural protein)
2 |  |  | 0.5 | 4 | spTorA-GFP
